B1: C-terminally truncated AtzF (AtzF467), first 467 amino acids of AtzF, N-terminally histidine-tagged (domain or fragment, Pseudomonas sp. strain ADP)
chain: MNDRAPHPERSGRVTPDHLTDLASYQAAYAAGTDAADVISDLYARIKEDGENPIWISLLPLESALAMLADAQQRKDKGEALPLFGIPFGVKDNIDVAGLPTTAGCTGFARTPRQHAFVVQRLVDAGAIPIGKTNLDQFATGLNGTRTPFGIPRCVFNENYVSGGSSSGSAVAVANGTVPFSLGTDTAGSGRIPAAFNNLVGLKPTKGLFSGSGLVPAARSLDCISVLAHTVDDALAVARVAAGYDADDAFSRKAGAAALTEKSWPRRFNFGVPAAEHRQFFGDAEAEALFNKAVRKLEEMGGTCISFDYTPFRQAAELLYAGPWVAERLAAIESLADEHPEVLHPVVRDIILSAKRMSAVDTFNGIYRLADLVRAAESTWEKIDVMLLPTAPTIYTVEDMLADPVRLNSNLGFYTNFVNLMDLSAIAVPAGFRTNGLPFGVTFIGRAFEDGAIASLGKAFVEHDLAK
notes: Allophanate hydrolase AtzF, Pseudomonas sp. strain ADP, first 467 amino acids (ends at Lys467), amidase domain; also called amidase domain of allophanate hydrolase; source: E. coli BL21 (λDE3), purified (Ni-NTA, Superdex 200 size exclusion); not shown: His6, N-terminal, kept

What was measured:
[1] = target: Allophanate hydrolase (AtzF) from Pseudomonas sp. strain ADP, His-tagged full-length (Pseudomonas sp. strain ADP); experiment: SEC; purified full-length AtzF on Superdex 200 prep-grade, 50 mM HEPES, 100 mM NaCl pH 7.5; oligomeric state from apparent size (~360 kDa)
[2] = target: the molecule itself; experiment: SEC; purified AtzF467 on Superdex 200 prep-grade, 50 mM Tris, 100 mM NaCl pH 7.5; oligomeric state from apparent size (~110 kDa); data not shown

Molecule | stoichiometry N [1] | stoichiometry N [2]
Allophanate hydrolase (AtzF) from Pseudomonas sp. strain ADP, His-tagged full-length (enzyme) | 6 | –
B1 | – | 2
